Sequences and labels used below:
B1: C2CD2L (parent)
chain: LTLKVLRSSSCGDTELLGQATLPV
B2: SCNN1D (parent)
chain: IRVMVHGRNHTPFLGHHSFSVRPG

Here are results for 94 variants from the supplement of paper PMC10567573.
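Further: lentivirally expressed fusions sorted by FACS into six bins by GFP to DsRed ratio, PSI derived from sequencing read proportions per bin multiplied by bin number.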

Variants of B1 are the subject of the first data set. In words: protein stability index of a GFP-peptide fusion (GPS, HEK-293T) (PSI 1-6); higher = more stable. Particulars: c terminus: a fixed tail appended.
In the case of LTLKVLRSSSCGDTEILGQATLPV [L16I], the protein stability index amounted to 2.19.
The same measure, in the same setting: with LTLKVLRSSSCGDTERLGQATLPV [L16R] the figure was 1.8; with LTLKVLRSSSCGDTEGLGQATLPV [L16G], 1.97.
Consider LTLKVLRSSSCGDTENLGQATLPV [L16N], for which the protein stability index was found to be 1.92.
On to LTLKVLRSSSCGDTEALGQATLPV [L16A], for which the protein stability index was 1.79.
Still for that read-out and setting: with LTLKVLRSSSCGDTEVLGQATLPV [L16V] the figure was 4.08; with LTLKVLRSSSCGDTECLGQATLPV [L16C], 2.07; with LTLKVLRSSSCGDTELLGQATLPM [V24M], 4.58.
The same measure, in the same setting: then LTLKVLRSSSCGDTELLGQATLPT [V24T], with 1.81.
As for LTLKVLRSSSCGDTELLGQATLPF [V24F], the protein stability index came to 2.7.
LTLKVLRSSSCGDTELLGQATLPD [V24D]: the protein stability index worked out at 1.64.
Same read-out and setting: then LTLKVLRSSSCGDTELLGQATLPG [V24G], with 2.02; and LTLKVLRSSSCGDTELLGQATLPQ [V24Q], with 1.82; and LTLKVLRSSSCGDTELLGQATLPK [V24K], with 1.85.
As to LTLKVLRSSSCGDTELLGQATLPH [V24H], the protein stability index is 1.37.
On the same count and under the same terms, with LTLKVLRSSSCGDTELLGQATLPR [V24R] the figure was 3.59; with LTLKVLRSSSCGDTELLGQATLPA [V24A], 2.59.
For the variant LTLKVLRSSSCGDTELLGQATLPP [V24P], the protein stability index was 2.41.
For LTLKVLRSSSCGDTELLGQATLPN [V24N], the protein stability index was determined as 1.92.
With LTLKVLRSSSCGDTELLGQATLPE [V24E], the protein stability index was 1.54.
Regarding LTLKVLRSSSCGDTELLGQATLPS [V24S], the protein stability index was 1.98.
The same measure, in the same setting: then LTLKVLRSSSCGDTELLGQATLFV [P23F], with 1.57; and LTLKVLRSSSCGDTELLGQATLAV [P23A], with 3.27.
In the case of LTLKVLRSSSCGDTELLGQATLCV [P23C], the protein stability index amounted to 3.55.
Regarding LTLKVLRSSSCGDTELLGQATLGV [P23G], the protein stability index worked out at 4.54.
Same read-out and setting: then LTLKVLRSSSCGDTELLGQANLPV [T21N], with 2.36; and LTLKVLRSSSCGDTELLGQAFLPV [T21F], with 3.74.
For the variant LTLKVLRSSSCGDTELLGQAHLPV [T21H], the protein stability index was 2.21.
Consider LTLKVLRSSSCGDTELLGQASLPV [T21S], for which the protein stability index worked out at 2.06.
Regarding LTLKVLRSSSCGDTELLGQAALPV [T21A], the protein stability index amounted to 1.09.
Same read-out and setting: then LTLKVLRSSSCGDTELLGQALLPV [T21L], with 2.39.
Same read-out and setting: then LTLKVLRSSSCGDTELLGQAQLPV [T21Q], with 1.58; and LTLKVLRSSSCGDTELLGQADLPV [T21D], with 1.57.
Regarding LTLKVLRSSSCGDTELLGQARLPV [T21R], the protein stability index turned out to be 3.3.
On to LTLKVLRSSSCGDTELLGQAELPV [T21E], for which the protein stability index turned out to be 1.58.
For LTLKVLRSSSCGDTELLGQAKLPV [T21K], the protein stability index is 2.08.
As to LTLKVLRSSSCGDTELLGQAGLPV [T21G], the protein stability index stood at 2.94.
Regarding LTLKVLRSSSCGDTELLGQAPLPV [T21P], the protein stability index was 2.22.
In the case of LTLKVLRSSSCGDTELLGQACLPV [T21C], the protein stability index was found to be 1.68.
Consider LTLKVLRSSSCGDTELLGQAMLPV [T21M], for which the protein stability index turned out to be 2.27.
With LTLKVLRSSSCGDTELLGQAYLPV [T21Y], the protein stability index came out at 3.37.
As for LTLKVLRSSSCGDTELLGQAVLPV [T21V], the protein stability index worked out at 2.34.
Take LTLKVLRSSSCGDTELLGQATYPV [L22Y]: the protein stability index came to 3.26.
Regarding LTLKVLRSSSCGDTELLGQATVPV [L22V], the protein stability index worked out at 2.75.
Still for that read-out and setting: then LTLKVLRSSSCGDTELLGQATCPV [L22C], with 2.52; and LTLKVLRSSSCGDTELLGQATPPV [L22P], with 1.87.
With LTLKVLRSSSCGDTELLGQATKPV [L22K], the protein stability index was found to be 1.97.
On to LTLKVLRSSSCGDTELLGQATRPV [L22R], for which the protein stability index was 1.6.
Same read-out and setting: then LTLKVLRSSSCGDTELLGQATGPV [L22G], with 1.75; and LTLKVLRSSSCGDTELLGQATEPV [L22E], with 1.74; and LTLKVLRSSSCGDTELLGQATDPV [L22D], with 2.67.
For LTLKVLRSSSCGDTELLGQATHPV [L22H], the protein stability index worked out at 1.54.
Consider LTLKVLRSSSCGDTELLGQATTPV [L22T], for which the protein stability index came out at 1.75.
For LTLKVLRSSSCGDTELLGQATMPV [L22M], the protein stability index was 1.56.
Take LTLKVLRSSSCGDTELLGQATNPV [L22N]: the protein stability index came out at 2.32.
Consider LTLKVLRSSSCGDTELLGQATSPV [L22S], for which the protein stability index was determined as 1.61.
With LTLKVLRSSSCGDTELLGQATAPV [L22A], the protein stability index was found to be 2.46.
LTLKVLRSSSCGDTELLGQATQPV [L22Q]: the protein stability index worked out at 1.28.
Turning to LTLKVLRSSSCGDTELLGQATWPV [L22W], the protein stability index was 2.21.
Take LTLKVLRSSSCGDTELLGQATIPV [L22I]: the protein stability index came out at 2.36.
In the case of LTLKVLRSSSCGDTELLGQITLPV [A20I], the protein stability index is 2.35.
The same measure, in the same setting: then LTLKVLRSSSCGDTELLGQMTLPV [A20M], with 2.92.
Same read-out and setting: with LTLKVLRSSSCGDTELLGQGTLPV [A20G] the figure was 1.03; with LTLKVLRSSSCGDTELLGQLTLPV [A20L], 2.33; with LTLKVLRSSSCGDTELLGQKTLPV [A20K], 3.04.
LTLKVLRSSSCGDTELLGQSTLPV [A20S]: the protein stability index stood at 1.48.
Take LTLKVLRSSSCGDTELLGQWTLPV [A20W]: the protein stability index worked out at 3.17.
On the same count and under the same terms, with LTLKVLRSSSCGDTELLGQNTLPV [A20N] the figure was 2.49; with LTLKVLRSSSCGDTELLGQHTLPV [A20H], 1.23; with LTLKVLRSSSCGDTELLGQETLPV [A20E], 2.1.
As to LTLKVLRSSSCGDTELLGQTTLPV [A20T], the protein stability index was found to be 1.79.
As for LTLKVLRSSSCGDTELLGQQTLPV [A20Q], the protein stability index was 2.09.
With LTLKVLRSSSCGDTELLGQRTLPV [A20R], the protein stability index turned out to be 1.44.
Regarding LTLKVLRSSSCGDTELLGQPTLPV [A20P], the protein stability index amounted to 1.96.
On to LTLKVLRSSSCGDTELLGQDTLPV [A20D], for which the protein stability index came out at 1.45.
Consider LTLKVLRSSSCGDTDLLGQATLPV [E15D], for which the protein stability index is 1.41.
Take LTLKVLRSSSCGDTLLLGQATLPV [E15L]: the protein stability index was determined as 3.22.
In the case of LTLKVLRSSSCGDTPLLGQATLPV [E15P], the protein stability index stood at 2.61.
For the variant LTLKVLRSSSCGDTSLLGQATLPV [E15S], the protein stability index was determined as 3.58.
Regarding LTLKVLRSSSCGDTILLGQATLPV [E15I], the protein stability index is 3.24.
On to LTLKVLRSSSCGDTTLLGQATLPV [E15T], for which the protein stability index is 2.83.
On the same count and under the same terms, then LTLKVLRSSSCGDTYLLGQATLPV [E15Y], with 2.19; and LTLKVLRSSSCGDTFLLGQATLPV [E15F], with 3.12.
Regarding LTLKVLRSSSCGDTNLLGQATLPV [E15N], the protein stability index amounted to 3.3.
In the case of LTLKVLRSSSCGDTQLLGQATLPV [E15Q], the protein stability index was 2.47.
In the case of LTLKVLRSSSCGDTALLGQATLPV [E15A], the protein stability index amounted to 3.85.

The variants in the next data set derive from B2. Described as above. The settings on record: c terminus: a fixed tail appended.
ERVMVHGRNHTPFLGHHSFSVRPG [I1E]: the protein stability index was 2.04.
Turning to LRVMVHGRNHTPFLGHHSFSVRPG [I1L], the protein stability index came to 1.31.
In the case of KRVMVHGRNHTPFLGHHSFSVRPG [I1K], the protein stability index turned out to be 2.21.
Consider MRVMVHGRNHTPFLGHHSFSVRPG [I1M], for which the protein stability index was 1.89.
As to DRVMVHGRNHTPFLGHHSFSVRPG [I1D], the protein stability index came out at 2.63.
Turning to ARVMVHGRNHTPFLGHHSFSVRPG [I1A], the protein stability index was 2.28.
Take FRVMVHGRNHTPFLGHHSFSVRPG [I1F]: the protein stability index stood at 1.82.
On the same count and under the same terms, then HRVMVHGRNHTPFLGHHSFSVRPG [I1H], with 2.74.
